Measured values: patent US20210214454A1 (SYMPHOGEN A S, published 2021)
Changes are numbered by the printed parent chain.

B1: antibody 17303 (antibody, human IgG1, kappa, L234A L235A, V domains shown)
VH: EVQLVESGGGLVQPGRSLRLSCAASGFTFDDHAMHWVRQAPGKGLEWVSGISWNSGSIGYAESVKGRFTISRDNAKNSLYLQMNSLRAEDTALYYCAKDRRGPFDYWGQGTLVTVSS
VL: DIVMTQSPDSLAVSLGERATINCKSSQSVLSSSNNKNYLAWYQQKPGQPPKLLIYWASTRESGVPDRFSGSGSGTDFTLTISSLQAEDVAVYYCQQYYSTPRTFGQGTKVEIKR
notes: Fully human IgG1-LALA / kappa
B2: antibody 15833 (antibody, human IgG1, kappa, L234A L235A, V domains shown)
VH: QVQLVESGGGVVQPGRSLRLSCAASGFTFSNYAMHWVRQAPGKGLEWVALISFDGSYKYYADSVKGRFTISRDNSKNTLYLQMNSLRAEDTAVYYCVKDAGYSSSWFFDYWGQGTLVTVSS
VL: DIQMTQSPSSVSASVGDRVTITCRASQDISSWLAWYQQKPGKAPKLLIYAASSLQSGVPSRFSGSGSGTDFTLTISSLQPEDFGNYYCQQANSFPWTFGQGTKVEIKR
notes: Fully human IgG1-LALA / kappa
B3: antibody 16154 (antibody, human IgG1, kappa, L234A L235A, V domains shown)
VH: EVQLVESGGGLVQPGGSLRLSCAASGFTFTSYWMSWVRQAPGKGLEWVANIKQDGSEKYYVDSVKGRFTISRDNAKNSLYLQMNSLRAEDTAVYYCARGPVAGPYWYFDLWGRGTLVTVSS
VL: AIQMTQSPSSLSASVGDRVTITCRASQGIRNDLGWYQQKPGKAPKLLIYAASSLQSGVPSRFSGSGSGTDFTLTISSLQPEDFATYYCLQDYHYPLTFGGGTKVEIKR
notes: Fully human IgG1-LALA / kappa
B4: antibody 15888 (antibody, human IgG1, kappa, L234A L235A, V domains shown)
VH: QVQLQQSGPGLVKPSQTLSLTCAISGDSVSSNSATWNWIRQSPSRGLEWLGRTYYRSKWYNDYAVSVKSRITINPDTSKNQFSLQLNSVTPEDTAVYYCARGGHSIAVAGPFDYWGQGTLVTVSS
VL: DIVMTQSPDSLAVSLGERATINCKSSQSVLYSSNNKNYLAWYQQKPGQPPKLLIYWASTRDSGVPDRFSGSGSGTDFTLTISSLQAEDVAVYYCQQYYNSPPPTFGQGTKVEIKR
notes: Fully human IgG1-LALA / kappa
B5: antibody 15948 (antibody, human IgG1, kappa, L234A L235A, V domains shown)
VH: QVQLVESGGGVVQPGRSLRLSCAASGFTFSIYGMHWVRQAPGKGLEWVAVISYDGSNKYYADSVKGRFTISRDNSKNTLYLQMNSLRAEDTAVYYCAKDPDYYGSGSYYPDWGQGTLVTVSS
VL: DIQLTQSPSFLSASVGDRVTITCRASQGISSYLAWYQQKPGKAPKLLIYAASTLQSGVPSRFSGSGSGTEFTLTISSLQPEDFATYYCQQVKSYPLTFGGGTKVEIKR
notes: Fully human IgG1-LALA / kappa
B6: antibody 16040 (antibody, human IgG1, kappa, L234A L235A, V domains shown)
VH: QVQLVESGGGVVQPGRSLRLSCAASGFTFSIYGMHWVRQAPGKGLEWVAVISYDGSNKYYADSVKGRFTISRDNSKNTLYLQMNSLRAEDTAVYYCAAGNWFDPWGQGTLVTVSS
VL: B5 VL with V91L, K92N, S93R
notes: Fully human IgG1-LALA / kappa

Columns and labels:
[1] = target: T1, cynomolgus CD40 protein expressed on CHO-S cells (cynomolgus, UniProt G7PG38 21-278); assay: flow cytometry on CHO-S cells transiently expressing cynomolgus CD40; AF647 anti-human IgG (H+L) secondary; GeoMean RL1-H
T1 construct: whole, on cells
Description: (§1) The anti-CD40 antibodies were incubated with hamster CHO-S cells transiently expressing human or cynomolgus CD40 for 30 minutes at 4° C. The cells were washed twice and subsequently incubated for an additional 20 minutes with AF647-conjugated secondary anti-human IgG (H+L) antibody. After the washing step, antibody binding was detected using the high-throughput flow cytometer iQue Screener PLUS (Sartorius) measuring the GeoMean of AF647 signal in each well. Every concentration was assayed in triplicate and a 12-point titration curve was generated for each antibody.

[2] = target: T2, cynomolgus CD40 extracellular domain (ECD) (cynomolgus); assay: SPR (IBIS MX96), antibody captured, monovalent CD40 ECD in solution
T2 construct: extracellular domain; also called Cynomolgus CD40 ECD

[3] = target: T3, His-tagged human CD40 extracellular domain (ECD) (human, UniProt P25942 21-193); assay: as above
T3 construct: Bought from Sino Biological; also called human CD40 ECD; CD40-his ECD antigen; not shown: His tag
T3 sequence (P25942 21-193): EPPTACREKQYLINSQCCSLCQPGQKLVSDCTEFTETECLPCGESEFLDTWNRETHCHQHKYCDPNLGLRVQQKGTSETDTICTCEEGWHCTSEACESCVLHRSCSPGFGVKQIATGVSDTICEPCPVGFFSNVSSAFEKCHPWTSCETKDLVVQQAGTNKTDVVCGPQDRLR

[4] = target: T4, human CD40 protein expressed on cells (human, UniProt P25942 21-277); assay: flow cytometry on CHO-S cells transiently expressing human CD40; AF647 anti-human IgG (H+L) secondary; GeoMean RL1-H
T4 construct: also called human CD40 on CHO-S cells; CD40 of CD40-NFkB-luciferase reporter cells (Promega CD40 Bioassay kit)
T4 sequence (P25942 21-277 limits assumed): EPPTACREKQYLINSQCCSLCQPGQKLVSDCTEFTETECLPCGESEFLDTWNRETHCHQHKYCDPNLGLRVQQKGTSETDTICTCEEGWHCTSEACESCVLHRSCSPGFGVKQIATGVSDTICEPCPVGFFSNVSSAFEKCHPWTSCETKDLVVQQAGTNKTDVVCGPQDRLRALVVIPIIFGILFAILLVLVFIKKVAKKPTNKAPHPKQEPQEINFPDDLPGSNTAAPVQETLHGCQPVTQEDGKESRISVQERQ
Description: as §1

Binder	EC50 (read off the curve) [1] [µg/mL]	Kd [2] [nM]	koff [2] [s⁻¹]	kon [2] [M⁻¹ s⁻¹]	Kd [3] [nM]	koff [3] [s⁻¹]	kon [3] [M⁻¹ s⁻¹]	EC50 (read off the curve) [4] [µg/mL]
B1	~0.02	9.8	0.0014	150000	7.8	0.00038	49000	–
B2	~0.2	1.5	0.00012	80000	2.8	0.00012	41000	~0.1
B3	~0.008	4.6	0.00051	110000	5.7	0.00031	53000	~0.008
B4	~0.02	0.44	0.00014	330000	0.75	0.00014	190000	–
B5	~0.4	57	0.0021	37000	3.1	0.00031	99000	–
B6	–	16	0.0013	81000	7	0.00036	52000	–
